Source: patent US20080139472A1, “UPREGULATING BDNF LEVELS TO MITIGATE MENTAL RETARDATION” (THE REGENTS OF THE UNIVERSITY OF CALIFORNIA, priority 2006, published 2008)
Entries after “also recorded” stand apart in the source; their conditions may differ.

Assays:
Format in all cases: cell-based, mouse
NMDA receptor = NMDA receptor contribution to theta burst responses in hippocampal slices, estimated with APV
Protocol: (§1) Transverse hippocampal slices (350 m) through the mid-septotemporal hippocampus were prepared with a vibratome (VT 1000 S; Leica, Bannockbum, Ill.) in ice-cold artificial CSF [ACSF; containing (in mM) 124 NaCl, 3 KCl, 1.25 KH2PO4, 3.4 CaCl2, 2.5 MgSO4, 26 NaHCO3, and 10 dextrose, pH 7.35) from young (2-3 months old) adult Fmr1-KO and wild-type (WT) mice (unless otherwise specified, chemicals were from Sigma, St. Louis, Mo.). […] Related to this, pharmacological results obtained with such slices accurately predict effects obtained with chronic recordings or biochemical assays from behaving animals (Staubli et al., 1994; Lauterbom et al., 2003), a point that is of importance to those aspects of the present work concerned with therapeutic strategies. All experiments were initiated between 9:00 and 11:00 A.M., and slices from Fmr1-KO and WT animals were randomized across two chambers and run simultaneously. Slices were maintained at 31±1° C. in an interface recording chamber with the slice surface exposed to warm, humidified 95% O2/5% CO2 and continuous ACSF perfused at a rate of 60-70 ml/hr. Slices equilibrated to the chamber for at least 1 h before recordings were initiated. […] Evoked responses were digitized (NacGather 2.0; Theta Burst, Irvine, Calif.) and analyzed for amplitude and fall slope; data are presented as a percentage of baseline. Responses to individual theta bursts were analyzed to determine the burst area; to evaluate treatment effects on theta train facilitation, responses to each burst in the theta train are presented as a percentage change from the area of the initial burst response. […] Statistical significance was assessed using either two-way repeated-measures ANOVA to compare values that were stable over time or Mann-Whitney Utest to compare groups expressing different decay rates (i.e., values not stable over time); statistical analyses were performed using SPSS version 15.0 (SPSS, Chicago, Ill.) Variance for physiology experiments is expressed as SEM.

[1] = test system: hippocampal slices from WT mice; assay: LTP (fEPSP slope) after theta burst stimulation in field CA1 of hippocampal slices from wild-type mice
Protocol: as §1, with “SEM. […]” for “SEM.”

[2] = test system: hippocampal slices from Fmr1-KO mice; assay: LTP (fEPSP slope) after theta burst stimulation in field CA1 of hippocampal slices from Fmr1-KO mice; details: for effect on TBS-induced increase in fEPSP slope (30-40 min post-TBS): compared with ACSF alone
Protocol: Transverse hippocampal slices (350 m) through the mid-septotemporal hippocampus were prepared with a vibratome (VT 1000 S; Leica, Bannockbum, Ill.) in ice-cold artificial CSF [ACSF; containing (in mM) 124 NaCl, 3 KCl, 1.25 KH2PO4, 3.4 CaCl2, 2.5 MgSO4, 26 NaHCO3, and 10 dextrose, pH 7.35) from young (2-3 months old) adult Fmr1-KO and wild-type (WT) mice (unless otherwise specified, chemicals were from Sigma, St. Louis, Mo.). […] Related to this, pharmacological results obtained with such slices accurately predict effects obtained with chronic recordings or biochemical assays from behaving animals (Staubli et al., 1994; Lauterbom et al., 2003), a point that is of importance to those aspects of the present work concerned with therapeutic strategies. All experiments were initiated between 9:00 and 11:00 A.M., and slices from Fmr1-KO and WT animals were randomized across two chambers and run simultaneously. Slices were maintained at 31±1° C. in an interface recording chamber with the slice surface exposed to warm, humidified 95% O2/5% CO2 and continuous ACSF perfused at a rate of 60-70 ml/hr. Slices equilibrated to the chamber for at least 1 h before recordings were initiated. A single glass electrode (2 M NaCl) was placed within the mid proximodistal CA1b stratum radiatum and was used to record field EPSPs (fEPSPs) from the apical dendrites of CA1 pyramidal cells. Orthodromic stimulation was delivered at two sites (CA1a and CA1c) in the apical Schaffer collateral-commissural projections to provide convergent activation of CA1b pyramidal cells. Pulses were administered in an alternating manner to the two electrodes at 0.05 Hz by using a current that elicited a 50% maximal response. […] Input-output and paired-pulse facilitation assays were performed as described previously (Rex et al., 2005). Synaptic potentiation was induced with a train of 5 or 10 theta bursts (each containing four pulses at 100 Hz, with an interburst interval of 200 ms) Carson et al., 1986; Kramar and Lynch, 2003; Rex et al., 2005). Evoked responses were digitized (NacGather 2.0; Theta Burst, Irvine, Calif.) and analyzed for amplitude and fall slope; data are presented as a percentage of baseline. Responses to individual theta bursts were analyzed to determine the burst area; to evaluate treatment effects on theta train facilitation, responses to each burst in the theta train are presented as a percentage change from the area of the initial burst response. Unless otherwise stated, group size values presented in the figures represent number of slices tested. Generally two to three slices were tested from a given mouse, and no fewer than three mice were used in any group; for statistical analyses, each slice was considered an individual n. Statistical significance was assessed using either two-way repeated-measures ANOVA to compare values that were stable over time or Mann-Whitney Utest to compare groups expressing different decay rates (i.e., values not stable over time); statistical analyses were performed using SPSS version 15.0 (SPSS, Chicago, Ill.) Variance for physiology experiments is expressed as SEM.
A recirculating perfusion system (oxygenated and heated as above) with a peristaltic pump (60 ml/hr; MasterFlex C/L; Cole-Parmer, Vernon Hills, Ill.) was used for experiments in which purified BDNF (catalog #GF029; Millipore, Temecula, Calif.) was administered to slices. The purity of the recombinant (mature) BDNF was confirmed using Western blot analyses: a single 14 kDa band was observed under denaturing conditions. Slices received BDNF for 30 min to 1 h before physiological recording. BDNF stock was prepared in ddH2O at a concentration of 50 ng/ml (this is equivalent to 1.85 nM based on the 27 kDa size of the dimer) and stored at −20° C. Control slices from the same animals received ACSF alone in parallel on a second recirculating interface chamber. […]

[3] = WT slices, pair of theta bursts, mean of 6 slices
[4] = Fmr1-KO slices, five theta bursts

effect of APV on theta burst responses (NMDA receptor; Fmr1-KO slices, pair of theta bursts with and without APV)	effect of APV on the second burst response (NMDA receptor; [3])	Molecule	effect of APV on the first burst response (NMDA receptor; [3])	potentiation (fEPSP slope, percent above baseline) ([1]; BDNF 50 ng/ml bath-applied, five theta bursts, minutes 30-40 post-TBS, mean ±SEM)	effect on facilitation of burst responses during theta trains ([1]; BDNF 50 ng/ml vs ACSF)	effect on input-output curves ([1]; BDNF 50 ng/ml vs ACSF alone)	LTP above baseline ([2]; Fmr1-KO slices treated with BDNF 15 ng/ml)	slope of the fEPSP enhanced above baseline ([2]; Fmr1-KO slices, BDNF 2 nM from 30 min before theta burst stimulation, five theta bursts, 40-50 min post-TBS)	degree of LTP (fEPSP slope, percent above baseline) ([2]; Fmr1-KO slices, BDNF 50 ng/ml bath-applied, five theta bursts, minutes 30-40 post-TBS, mean ±SEM)	effect on input-output curves / baseline transmission (fEPSP amplitude) ([2]; Fmr1-KO slices, BDNF 50 ng/ml vs ACSF alone or heat-inactivated BDNF)	effect on facilitation of burst responses during theta trains ([2]; Fmr1-KO slices, BDNF 50 ng/ml vs ACSF and heat-inactivated BDNF)	restoration of LTP ([2]; Fmr1-KO slices, brief infusion of 50 ng/ml BDNF, threshold theta burst stimulation)	effect on TBS-induced increase in fEPSP slope (30-40 min post-TBS) [2, 4]
marked, and reversible, depression	reduced the size of fEPSPs 2 through 4	N[C@@H](CCCP(=O)(O)O)C(=O)O [APV]	slight reduction in the half-width of the fourth fEPSP	–	–	–	–	–	–	–	–	–	–
–	–	BDNF: purified recombinant (mature) BDNF, catalog #GF029; Millipore; single 14 kDa band under denaturing conditions (protein, UniProt P23560 19-247, looked up) Neurotrophic factor BDNF …: APMKEANIRGQGGLAYPGVRTHGTLESVNGPKAGSRGLTSLADTFEHVIEELLDEDQKVRPNEENNKDADLYTSRVMLSSQVPLEPPLLFLLEEYKNYLDAANMSMRVRRHSDPARRGELSVCDSISEWVTAADKKTAVDMSGGTVTVLEKVPVSKGQLKQYFYETKCNPMGYTKEGCRGIDKRHWNSQCRTTQSYVRALTMDSKKRIGWRFIRIDTSCVCTLTIKRGR	–	51.3±8.6%	did not measurably affect	did not alter	> 40%	44%	42.1±8.6%	no effect; also recorded: did not alter	did not measurably affect	fully restored LTP	enhanced
–	–	heat-inactivated BDNF: BDNF heat-inactivated by boiling for 5 min immediately before use; specificity control (protein, UniProt P23560 19-247, looked up, heat-inactivated, specificity control) Neurotrophic factor BDNF …: APMKEANIRGQGGLAYPGVRTHGTLESVNGPKAGSRGLTSLADTFEHVIEELLDEDQKVRPNEENNKDADLYTSRVMLSSQVPLEPPLLFLLEEYKNYLDAANMSMRVRRHSDPARRGELSVCDSISEWVTAADKKTAVDMSGGTVTVLEKVPVSKGQLKQYFYETKCNPMGYTKEGCRGIDKRHWNSQCRTTQSYVRALTMDSKKRIGWRFIRIDTSCVCTLTIKRGR	–	–	–	–	–	–	–	–	–	–	no effect
